Here are results for seven molecules from patent publication US20190300875A1 (University of California, published 2019).

The labels stand for the following.
B6: Arabidopsis cryptochrome 2 (CRY2) (receptor)
chain: MKMDKKTIVWFRRDLRIEDNPALAAAAHEGSVFPVFIWCPEEEGQFYPGRASRWWMKQSLAHLSQSLKALGSDLTLIKTHNTISAILDCIRVTGATKVVFNHLYDPVSLVRDHTVKEKLVERGISVQSYNGDLLYEPWEIYCEKGKPFTSFNSYWKKCLDMSIESVMLPPPWRLMPITAAAEAIWACSIEELGLENEAEKPSNALLTRAWSPGWSNADKLLNEFIEKQLIDYAKNSKKVVGNSTSLLSPYLHFGEISVRHVFQCARMKQIIWARDKNSEGEESADLFLRGIGLREYSRYICFNFPFTHEQSLLSHLRFFPWDADVDKFKAWRQGRTGYPLVDAGMRELWATGWMHNRIRVIVSSFAVKFLLLPWKWGMKYFWDTLLDADLECDILGWQYISGSIPDGHELDRLDNPALQGAKYDPEGEYIRQWLPELARLPTEWIHHPWDAPLTVLKASGVELGTNYAKPIVDIDTARELLAKAISRTREAQIMIGAAPDEIVADSFEALGANTIKEPGLCPSVSSNDQQVPSAVRYNGSKRVKPEEEEERDMKKSRGFDERELFSTAESSSSSSVFFVSQSCSLASEGKNLEGIQDSSDQITTSLGKNGCK
notes: also called AT1G04400

One series has as its target FLUC-CRY2 (Arabidopsis) (UniProt Q96524). The series can be described thus: quantitative co-IP (dual-luciferase), anti-Flag beads, HEK293T cells, blue light 30 µmol m^-2 s^-1.
The next series deals with T1, Flag-hCRY1 (human, UniProt Q16526 1-586).
T1 construct: this is the CRY1 form; not shown: Flag tag
T1 sequence (looked up): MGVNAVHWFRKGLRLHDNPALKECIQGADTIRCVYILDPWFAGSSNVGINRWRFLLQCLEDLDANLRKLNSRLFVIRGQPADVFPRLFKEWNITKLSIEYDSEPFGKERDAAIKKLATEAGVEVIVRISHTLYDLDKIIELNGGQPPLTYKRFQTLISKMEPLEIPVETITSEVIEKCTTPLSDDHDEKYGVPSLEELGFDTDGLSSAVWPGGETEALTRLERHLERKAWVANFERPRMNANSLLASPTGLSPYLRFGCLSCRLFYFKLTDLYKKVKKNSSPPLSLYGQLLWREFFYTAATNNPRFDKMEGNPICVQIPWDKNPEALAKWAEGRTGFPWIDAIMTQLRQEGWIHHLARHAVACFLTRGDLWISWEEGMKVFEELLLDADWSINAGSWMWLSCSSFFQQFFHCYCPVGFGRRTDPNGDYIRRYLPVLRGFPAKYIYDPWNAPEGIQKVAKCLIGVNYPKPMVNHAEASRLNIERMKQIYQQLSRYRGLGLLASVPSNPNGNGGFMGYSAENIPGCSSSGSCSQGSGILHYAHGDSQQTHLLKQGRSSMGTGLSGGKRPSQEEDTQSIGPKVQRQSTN
Put plainly: co-IP with anti-Flag beads, HEK293T cells (FIG. 11). Here is the method:
In FIG. 11, HEK293T cells coexpressing Flag-hCRY, Myc-hCRY and GFP-BIC1 or GFP were exposed to 100 μmol m⁻² s⁻¹ blue light for 2 hours (+) or kept in the dark (−). Anti-Flag antibody conjugated beads were used to perform the immunoprecipitations. Flag-hCRY (IP signal) and Myc-hCRY or GFP-BIC1 (co-IP signals) were detected by Flag and Myc or GFP antibody, respectively. […]

The target of series [1] is B6. Put plainly: summary of the examples.
Series [2] deals with the molecule itself. The series can be described thus: co-IP, HEK293T cells, control experiment.
The target of series [3] is T2, GFP-CRY2 (CRY2 fused to green fluorescent protein) (Arabidopsis, UniProt Q96524 1-612).
T2 construct: Expressed in Arabidopsis plants together with Myc-CRY2; not shown: green fluorescent protein
The series can be described thus: co-IP with GFP-Trap-A from etiolated seedlings co-expressing Myc-CRY2 and GFP-CRY2, blue light 20 sec to 10 min (FIG. 9A). An excerpt: GFP-Trap-A were used to immunoprecipitate GFP-CRY2. GFP-CRY2 (IP signal) and Myc-CRY2 (co-IP signal) were detected by GFP or Myc antibody, respectively. […] HEK293T cells co-expressing FLUC-CRY2 and REN-CRY2 were exposed to blue light (30 μmol·m⁻²·s⁻¹) for the time indicated, lysed, aliquots removed for the measurement of ATL (Adjusted Total Luminescence), and FLUC-CRY2 precipitated by anti-Flag antibody conjugated beads. Photodimerization of CRY2 was quantified by the dual-luciferase assay to calculate the Normalized Dimerization Ratio (NDR) by the formula: NDR=[(REN/LUC)L/(REN/LUC)D]/ATL, where LUC is the LUC luminescence detected for the precipitated FLUC-CRY2, REN is the REN luminescence detected for the co-precipitated REN-CRY2. (REN/LUC)L or (REN/LUC)D were measured in cells exposed to light or darkness, respectively. ATL (Adjusted Total Luminescence) is the cell volume-adjusted sum of LUC and REN luminescence of the cell lysates before immunoprecipitation, in which REN luminescence is converted to the LUC equivalent by the standard curve prepared by analyses of the LUC-REN fusion protein (not shown). ATL represents concentration of the CRY2 protein. […] Flag-CRY2 (IP signal) and Myc-CRY2 or GFP-BIC1 (co-IP signals) were detected by Flag and Myc or GFP antibody, respectively. […]

In a further series the target is T3, Flag-CRY2 (Arabidopsis, UniProt Q96524 1-612).
T3 construct: not shown: Flag tag
Put plainly: co-IP with antibody to Flag, HEK293T cells, dark. From the text:
Homodimers are the physiologically active form of plant CRYs (8, 9), but the effect of light on CRY dimerization has not been detected in previous studies (9, 20). This could be explained by, among other interpretations, light-independent CRY dimerization or masking effects of regulatory proteins, such as BICs, on the light-dependent CRY dimerization (9, 20). We reexamined the bluelight dependence of CRY2 dimerization using multiple approaches. In the first experiment, we coexpressed Flag-CRY2 and Myc-CRY2 in HEK293T cells (21-24) and tested the interaction between the two differentially tagged CRY2s by co-IP assay. In the absence of blue light, antibody to Flag coprecipitated little Myc-CRY2 from HEK293T cells expressing similar amounts of Flag-CRY2 and Myc-CRY2 (FIG. 4B and FIG. S12A of Wang et al).

Series [4] concerns the molecule itself. Put plainly: yeast β-gal assay (FIG. 4A); also immunoblots of HEK293FT lysates (4B, 4C) and plant nuclear proteins (4D, 4E) after blue light. An excerpt: FIG. 4 provides data showing redox-dependent CRY dimerization, and blue-light-induced CRY and BIC interaction. (FIG. 4A) The β-galactosidase (β-gal) assay showing the blue-light-dependent formation of CRY2 dimer. Yeast cells were kept in darkness (D) or illuminated with blue light (B5, 5 μmol m⁻² s⁻¹; B25, 25 μmol m⁻² s⁻¹; B50, 50 μmol m⁻² s⁻¹) for the indicated time. (FIG. 4B) Immunoblot showing the blue-light-induced dimerization of CRY2 expressed in HEK293FT (H293) cells. The cells were lysed, divided into 12 samples and irradiated by blue light (40 μmol m⁻²s⁻¹) for the indicated durations. For β-mercaptoethanol (2-Me) treatment, 6 samples were added with 2-Me to 5% (v/v), and then all the samples were analyzed by western blot using anti-CRY2 antibody. CRY2, monomeric CRY2; (CRY2)2, CRY2 dimer; (CRY2)ₙ, CRY2 oligomer. (FIG. 4C) The H293 cell lysate were prepared in dark, irradiated with blue light for the durations indicated. For the NEM treatment, the samples were added with NEM (50 mM), and then the samples were analyzed by western blot using anti-CRY2 antibody. (FIGS. 4D and E) Dimerization and oligomerization of CRY2 proteins are blue light-induced in vivo. […]

Regarding REN-CRY2, in the series with FLUC-CRY2 (Arabidopsis), the Maximum Photodimerization (Dm, maximum Normalized Dimerization Ratio) came out at 4.7 and the Rate of Photodimerization (D1/2) was 1 min.

B1: GFP-BIC1 (other)
chain: MMNIDDTTSPMAHPIGPSQPPSDQTKQDPPSLPQEAASSVSADKKDLALLEEKPKQSQEEDRVDTGRERLKKHRREIAGRVWIPEIWGQEELLKDWIDCSTFDTCLVPAGISSARTALVEEARRAASASGGLHNRCLILR
notes: Expressed in HEK293T cells; not shown: GFP
Regarding B1, the binding result with Flag-hCRY1 is given as “binds”.

B2: Blue-light Inhibitor of Cryptochromes 1 (BIC1) (other)
chain: MMNIDDTTSPMAHPIGPSQPPSDQTKQDPPSLPQEAASSVSADKKDLALLEEKPKQSQEEDRVDTGRERLKKHRREIAGRVWIPEIWGQEELLKDWIDCSTFDTCLVPAGISSARTALVEEARRAASASGGLHNRCLILR
notes: also called Arabidopsis BIC1; AT3G52740
For the molecule B2, the binding result in series [1] is listed as “binds”.

B3: human cryptochrome 1 (hCRY1) (other, UniProt Q16526 1-586, looked up)
chain: MGVNAVHWFRKGLRLHDNPALKECIQGADTIRCVYILDPWFAGSSNVGINRWRFLLQCLEDLDANLRKLNSRLFVIRGQPADVFPRLFKEWNITKLSIEYDSEPFGKERDAAIKKLATEAGVEVIVRISHTLYDLDKIIELNGGQPPLTYKRFQTLISKMEPLEIPVETITSEVIEKCTTPLSDDHDEKYGVPSLEELGFDTDGLSSAVWPGGETEALTRLERHLERKAWVANFERPRMNANSLLASPTGLSPYLRFGCLSCRLFYFKLTDLYKKVKKNSSPPLSLYGQLLWREFFYTAATNNPRFDKMEGNPICVQIPWDKNPEALAKWAEGRTGFPWIDAIMTQLRQEGWIHHLARHAVACFLTRGDLWISWEEGMKVFEELLLDADWSINAGSWMWLSCSSFFQQFFHCYCPVGFGRRTDPNGDYIRRYLPVLRGFPAKYIYDPWNAPEGIQKVAKCLIGVNYPKPMVNHAEASRLNIERMKQIYQQLSRYRGLGLLASVPSNPNGNGGFMGYSAENIPGCSSSGSCSQGSGILHYAHGDSQQTHLLKQGRSSMGTGLSGGKRPSQEEDTQSIGPKVQRQSTN
notes: Homodimerization tested with differently tagged copies (Flag-hCRY and Myc-hCRY) co-expressed in HEK293T cells; also called human CRY1
For the molecule B3, in series [2], the binding result is given as “binds”.

B4: Blue-light Inhibitor of Cryptochromes 2 (BIC2) (other)
chain: MKNTNLPEETKEPISPGSSHRKQNKTGTKTCFPETTVLSGRDRLKRHREEVAGKVPIPDSWGKEGLLMGWMDFSTFDAAFTSSQIVSARAALMADSGDDAGARGSRPQRLRVESSC
notes: also called Arabidopsis BIC2; AT3G44450
As for B4, the binding result in series [1] was “binds”.

B5: Myc-CRY2 (other)
chain: MKMDKKTIVWFRRDLRIEDNPALAAAAHEGSVFPVFIWCPEEEGQFYPGRASRWWMKQSLAHLSQSLKALGSDLTLIKTHNTISAILDCIRVTGATKVVFNHLYDPVSLVRDHTVKEKLVERGISVQSYNGDLLYEPWEIYCEKGKPFTSFNSYWKKCLDMSIESVMLPPPWRLMPITAAAEAIWACSIEELGLENEAEKPSNALLTRAWSPGWSNADKLLNEFIEKQLIDYAKNSKKVVGNSTSLLSPYLHFGEISVRHVFQCARMKQIIWARDKNSEGEESADLFLRGIGLREYSRYICFNFPFTHEQSLLSHLRFFPWDADVDKFKAWRQGRTGYPLVDAGMRELWATGWMHNRIRVIVSSFAVKFLLLPWKWGMKYFWDTLLDADLECDILGWQYISGSIPDGHELDRLDNPALQGAKYDPEGEYIRQWLPELARLPTEWIHHPWDAPLTVLKASGVELGTNYAKPIVDIDTARELLAKAISRTREAQIMIGAAPDEIVADSFEALGANTIKEPGLCPSVSSNDQQVPSAVRYNGSKRVKPEEEEERDMKKSRGFDERELFSTAESSSSSSVFFVSQSCSLASEGKNLEGIQDSSDQITTSLGKNGCK
notes: not shown: Myc tag
In the case of B5, the binding result (in series [3]; in the series with Flag-CRY2) was “binds” in each case.

With B6, in series [4], the binding result is on record as “binds”.
